From ChEMBL document CHEMBL3392998
The source made the active and inactive calls. The calls are words filed in the database; no cut-off is given here.

Columns and labels:
[1] = system: O=C1c2cccc([N+](=O)[O-])c2C(=O)N1c1ccc2[nH]c(=S)sc2c1; settings: Human immunodeficiency virus 1; 100 uM
[2] = system: O=C1c2cccc([N+](=O)[O-])c2C(=O)N1c1ccc2[nH]c(=S)sc2c1; settings: Human immunodeficiency virus 1; 150 uM
[3] = system: O=C1c2cccc([N+](=O)[O-])c2C(=O)N1c1ccc2[nH]c(=S)sc2c1; settings: Human immunodeficiency virus 1; 100 uM; remark: listed apart in the source
[4] = system: O=C1c2cccc([N+](=O)[O-])c2C(=O)N1c1ccc2[nH]c(=S)sc2c1; settings: Human immunodeficiency virus 1; 150 uM; remark: listed apart in the source
[5] = system: Human immunodeficiency virus type 1 protease (Human immunodeficiency virus 1), Q72874 [L10I,L63P,A71V,G73S,I84V,L90M]; settings: 1 to 180 uM
[6] = target: Protease (Human immunodeficiency virus 1) (UniProt Q9YQ12); settings: 1 to 180 uM
[7] = system: O=C1c2cccc([N+](=O)[O-])c2C(=O)N1c1ccc2[nH]c(=S)sc2c1; settings: Human immunodeficiency virus 1; 100 uM; remark: listed apart in the source
[8] = system: O=C1c2cccc([N+](=O)[O-])c2C(=O)N1c1ccc2[nH]c(=S)sc2c1; settings: Human immunodeficiency virus 1; 100 uM; remark: listed apart in the source
[9] = system: O=C1c2cccc([N+](=O)[O-])c2C(=O)N1c1ccc2[nH]c(=S)sc2c1; settings: Human immunodeficiency virus 1; 150 uM; remark: listed apart in the source
[10] = system: O=C1c2cccc([N+](=O)[O-])c2C(=O)N1c1ccc2[nH]c(=S)sc2c1; settings: Human immunodeficiency virus 1; 150 uM; remark: listed apart in the source

For “Human immunodeficiency virus type 1 protease (Human immunodeficiency virus 1), Q72874 L10I,L63P,A71V,G73S,I84V,L90M”, the Km [1] was 246 µM, the Km [2] was 359 µM and the Vmax [3] was 30 nM/s. The Vmax [4] was 30 nM/s.

For `O=C1c2cccc([N+](=O)[O-])c2C(=O)N1c1ccc2[nH]c(=S)sc2c1`, the inhibition [5] was “inactive” and the inhibition [6] was “inactive”.

“Protease (Human immunodeficiency virus 1), Q9YQ12” was tested, and the Km [7] was 144 µM, the Vmax [8] was 35 nM/s and the Km [9] was 184 µM. It also gave a Vmax [10] of 34 nM/s.
